Results reported in patent US20260125472A1 (HEFEI TG IMMUNOPHARMA, published 2026).

Experiments:
[1] = molecular target: T1, PDL1 protein (UniProt Q9NZQ7 19-238); assay: ELISA, coated PDL1 protein, OD450 [panels A, B]
T1 construct: Bought recombinant protein
Procedure: (3) PDL1 protein (purchased from Acro) was diluted to 2 μg/ml with PBS buffer, added to a 96-well plate at a volume of 100 μL/well, and placed at 4° C. overnight. The PBS buffer in the 96-well plate was aspirated, and the plate was washed 6 times with PBST (pH 7.2 PBS containing 0.10% Tween 20) buffer. Then, PBS/10% BSA was added at 200 μL/well and incubated at 37° C. for 2 h for blocking. The blocking solution was removed, and the plate was washed six times with PBST. Then, the to-be-tested bispecific antibodies serially diluted with PBST/0.05% BSA, Cross3×PDL1, Cross303×PDL1, Cross307×PDL1, Cross308×PDL1, Cross309×PDL1, Cross310×PDL1, Cross311×PDL1, Cross312×PDL1, Cross313×PDL1, Cross314×PDL1, Cross316×PDL1, Cross317×PDL1, Cross318×PDL1, Cross323×PDL1, Cross325×PDL1, Cross326×PDL1, and control IgG1LALA (purchased from Bio-Tech) were added at 100 μL/well, and incubated at 37° C. for 1 h. The reaction system was removed, and the plate was washed 6 times with PBST. Then, the cells were incubated at 37° C. for 1 h with HRP (horseradish peroxidase)-labeled anti-human secondary antibody (Fab specific) (purchased from Sigma) serially diluted with PBST/0.05% BSA at 100 μL/well. After the plate was washed six times with PBST, TMB (tetramethylbenzidine) was added at 80 μL/well and incubated at room temperature for 3 min. […] The absorbance was read at 450 nm using a microplate reader.

[2] = molecular target: T2, PDL1 on A-375 melanoma cells, HCT-15 colorectal cancer cells and A549 lung cancer cells (UniProt Q9NZQ7 19-290, limits assumed); assay: flow cytometry, A549 cells, MFI [panel B]
T2 construct: whole, on cells
T2 sequence (Q9NZQ7 19-290 limits assumed): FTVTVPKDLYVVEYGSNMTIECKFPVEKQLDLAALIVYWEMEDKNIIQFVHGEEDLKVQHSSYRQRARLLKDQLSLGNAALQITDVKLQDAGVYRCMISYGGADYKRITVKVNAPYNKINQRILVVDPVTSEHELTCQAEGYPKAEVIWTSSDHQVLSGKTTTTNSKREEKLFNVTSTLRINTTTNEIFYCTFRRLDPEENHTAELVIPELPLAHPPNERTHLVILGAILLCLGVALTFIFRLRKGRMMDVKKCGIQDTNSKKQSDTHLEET
Method in brief: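 Cells were blocked with goat serum at 4° C for 30 min, then incubated with serially diluted bispecific antibodies or hIgG1LALA control at 4° C for 30 min. Bound antibody was detected with Alexa-647 anti-human IgG (4° C, 30 min, dark) and read by flow cytometry.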

T1 sequence (Q9NZQ7 19-238 limits assumed): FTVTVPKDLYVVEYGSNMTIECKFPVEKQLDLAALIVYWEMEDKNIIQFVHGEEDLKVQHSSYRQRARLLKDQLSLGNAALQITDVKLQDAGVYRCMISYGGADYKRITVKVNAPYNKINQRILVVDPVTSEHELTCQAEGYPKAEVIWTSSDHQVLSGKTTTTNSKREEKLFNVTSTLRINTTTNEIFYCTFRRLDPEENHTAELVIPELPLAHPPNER

B1: Cross3×PDL1 (bispecific antibody, human IgG1, kappa, L234A L235A)
scFv: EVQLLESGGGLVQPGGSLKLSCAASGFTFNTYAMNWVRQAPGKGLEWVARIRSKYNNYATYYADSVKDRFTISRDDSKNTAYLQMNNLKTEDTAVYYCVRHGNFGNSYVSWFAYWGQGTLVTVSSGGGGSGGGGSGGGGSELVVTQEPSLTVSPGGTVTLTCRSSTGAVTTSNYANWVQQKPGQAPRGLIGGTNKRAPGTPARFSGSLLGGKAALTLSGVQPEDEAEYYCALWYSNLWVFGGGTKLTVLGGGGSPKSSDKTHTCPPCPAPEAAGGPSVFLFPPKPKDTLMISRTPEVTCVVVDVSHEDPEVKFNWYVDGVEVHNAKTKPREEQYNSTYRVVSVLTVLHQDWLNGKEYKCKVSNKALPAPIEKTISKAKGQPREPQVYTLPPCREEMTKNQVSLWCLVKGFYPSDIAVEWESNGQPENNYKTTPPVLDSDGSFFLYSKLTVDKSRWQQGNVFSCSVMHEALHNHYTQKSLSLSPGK
heavy: QVQLVQSGAEVKKPGASVKVSCKASGYSFTGYYMHWVRQAPGQGLEWIGRINPYNGATTYSQNFKDRATMTVDTSISTAYMELSRLRSDDTAVYYCVPTGMGYFLMDYWGQGTLVTVSSASTKGPSVFPLAPSSKSTSGGTAALGCLVKDYFPEPVTVSWNSGALTSGVHTFPAVLQSSGLYSLSSVVTVPSSSLGTQTYICNVNHKPSNTKVDKKVEPKSCDKTHTCPPCPAPEAAGGPSVFLFPPKPKDTLMISRTPEVTCVVVDVSHEDPEVKFNWYVDGVEVHNAKTKPREEQYNSTYRVVSVLTVLHQDWLNGKEYKCKVSNKALPAPIEKTISKAKGQPREPQVCTLPPSREEMTKNQVSLSCAVKGFYPSDIAVEWESNGQPENNYKTTPPVLDSDGSFFLVSKLTVDKSRWQQGNVFSCSVMHEALHNHYTQKSLSLSPGK
light: DIQLTQSPSFLSASVGDRVTITCKASQDVGSAVVWYQQKPGKAPKLLIYWASTRHTGVPSRFSGSGSGTEFTLTISSLQPEDFATYFCQQFTSYPTFGQGTKLEIKRTVAAPSVFIFPPSDEQLKSGTASVVCLLNNFYPREAKVQWKVDNALQSGNSQESVTEQDSKDSTYSLSSTLTLSKADYEKHKVYACEVTHQGLSSPVTKSFNRGEC
notes: also called parent Cross3×PDL1 bispecific antibody
[1]
  EC50 (read off the curve): ~0.2 µg/mL
[2]
  EC50 (read off the curve): ~1 µg/mL
